Laboratory results from doi:10.1101/2024.10.21.619555.

Target: DR6 ECD-Halo (UniProt O75509)
Assay: single-molecule dual-color photobleaching

Sequence of DR6 ECD-Halo (O75509 42-349): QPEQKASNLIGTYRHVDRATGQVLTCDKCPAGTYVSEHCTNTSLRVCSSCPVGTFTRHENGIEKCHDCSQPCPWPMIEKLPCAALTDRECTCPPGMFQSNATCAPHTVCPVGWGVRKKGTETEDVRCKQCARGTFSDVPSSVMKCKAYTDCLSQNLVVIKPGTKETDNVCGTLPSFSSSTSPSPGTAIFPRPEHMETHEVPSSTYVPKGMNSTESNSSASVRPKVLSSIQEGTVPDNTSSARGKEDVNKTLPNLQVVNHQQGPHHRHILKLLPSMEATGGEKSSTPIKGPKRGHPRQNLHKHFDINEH

**Q.** “RBP4-SNAP (from UniProt P02753 19-201) (ligand)” was tested. Which stoichiometry N did it give?
**A.** 1
